Assay results: US6475744 (GENERAL HOSPITAL CORPORATION A MASSACHUSETTS, dated 2002)

B2: mTIM-V5 (other, not shown: small tags and cut ends)
chain: MDLYMMNCELLATCSALGYLEGGTYHKEPDCLESVKDLIRYLRHEDETRDVRQQLGAAQILQSDLLPILTQHRQDKPLFDAVIRLMVNLTQPALLCFGSVPKDSSVRHHFLQVLTYLQAYKEAFASEKAFGVLSETLYELLQLGWEDRQEEDNLLIERILLLVRNILHVPANLEQEKSIDDDASIHDRLLWAIHLSGMDDLLLFLSSSSAEQQWSLHVLEIISLMFRDQTPEQLAGVGQGRLAQERSTDVAELEVLRQREMAEKRARALQRGNRHSRFGGSYIVQGLKSIGEKDVVFHKGLHNLQNYSSDLGKQPRRVPKRRQAAQELSVHRRSVLNVRLFLRDFCSEFLENCYNPLMGAVKDHLLRERAQQHDETYYMWAMAFFMAFNRAATFRPGLVSETLSIRTFHFVEQNLTNYYEMMLTDRKEAASWARRMHLALKAYQELLATVNEMDMCPDEAVRESSRIIKNNIFYMMEYRELFLALFRKFDERYHPRSFLRDLVETTHLFLKMLERFCRSRGNLMVQNKRKKRKKKKKVQDQGVAFSQSPGELEAMWPALAEQLLQCAQDPELSVDPVVPFDAASEVPVEEQRVEAMVRIQDCLTAGQAPQALALLRSAREVWPEGNAFGSPVISPGEEMQLLKQILSTPLPRQQEPEEGDAEEEEEEEEEEELQVVQVSEKEFNFLEYLKRFASSTIVRAYVLLLRSYRQNSAHTNHCIAKMLHRLAHGLGMEALLFQLSLFCLFNRLLSDPAAAAYKELVTFAKYIIGKFFALAAVNQKAFVELLFWKNTAVVREMTQGYGSLDSGSSSHRAPLWSPEEEAQLQELYLAHKDVEGQDVVETILAHLKVVPRTRKQVIHHLVRMGLADSVKEFQKRKGTQIVLWTEDQELELQRLFEEFRDSDDVLGQIMKNITAKRSRARVVDKLLALGLVSERRQLYKKRRKKLAPSCMQNGEKSPRDPWQEDPEEEDEHLPEDESEDEESEEGLPSGQGQGSSSLSAENLGESLRQEGLSAPLLWLQSSLIRAANDREEDGCSQAIPLVPLTEENEEAMENEQFQHLLRKLGIRPPSSGQETFWRIPAKLSSTQLRRVAASLSQQENEEEREEEPEPGVPGEQGPSEEHRTEALRALLSARKRKAGLGPTEEEATGEEEWNSAPKKRQLLDSDEEEDDEGRRQAVSGTPRVHRKKRFQIEDEDD
notes: the construct was made from the coding region of AF071506; Printed once as 'mTIM-VS', read as V5; also called mTIM-VS

Key:
CYC (Drosophila) = CYC (Drosophila) (UniProt O61734); experiment: cell-based or functional assay
Chain of CYC (Drosophila) (O61734 whole entry): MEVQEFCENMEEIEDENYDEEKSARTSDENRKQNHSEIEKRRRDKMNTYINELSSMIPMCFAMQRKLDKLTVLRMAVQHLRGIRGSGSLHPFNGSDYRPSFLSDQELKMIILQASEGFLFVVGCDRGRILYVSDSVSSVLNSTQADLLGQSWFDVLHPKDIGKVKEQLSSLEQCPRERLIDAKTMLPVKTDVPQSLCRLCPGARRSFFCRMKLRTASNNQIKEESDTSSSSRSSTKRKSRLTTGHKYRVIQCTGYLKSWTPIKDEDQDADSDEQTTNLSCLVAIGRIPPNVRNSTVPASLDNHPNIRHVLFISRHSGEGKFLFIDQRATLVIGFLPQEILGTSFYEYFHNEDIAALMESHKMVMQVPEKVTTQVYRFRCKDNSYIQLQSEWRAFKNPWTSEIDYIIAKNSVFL

mTIM-V5 = target: B2; experiment: co-immunoprecipitation from co-transfected COS7 cells, anti-HA IP, anti-V5 blot
Protocol: (§1) Subsequently, the beads were washed four times (400 μl binding buffer for 10 min. per wash), mixed with 5 μl of 4×sodium dodecyl sulfate (SDS) gel loading buffer, boiled, and centrifuged. The supernatant was analyzed by SDS-polyacrylamide gel electrophoresis (PAGE) and western blotted as follows. Total protein (5 μg) from COS7 cells was extracted as described above, separated by SDS-PAGE, and transferred to a nitrocellulose membrane using a semi-dry blotting apparatus. Membranes were blocked with 5% non-fat milk. Blots were incubated with either the mouse anti-HA antibody (1:10,000) or the mouse anti-V5 antibody (1:5,000) overnight at 4EC. A goat anti-mouse horseradish peroxidase secondary antibody (1:10,000) was used in combination with enhanced chemiluminescence (NEN) to detect proteins.
(§2) Following detection of epitope-tagged proteins with one antibody, the blots were stripped in stripping buffer (62.5 mM Tris-HCl (pH 6.7), 100 mM 2-mercaptoethanol, 2% SDS) at 50EC for 30 minutes. The membrane was washed extensively (20 mM Tris, pH 7.6, 137 mM NaCl, 0.05% Tween-20) then blocked again and processed for detection of the second epitope-tagged protein.

mPER1-HA = target: T1, mPER1-HA (mouse, UniProt O35973 1-1291); experiment: as above
T1 construct: Expressed in COS7 cells; used in place of mPER3-HA in co-immunoprecipitation
T1 sequence (O35973 whole entry): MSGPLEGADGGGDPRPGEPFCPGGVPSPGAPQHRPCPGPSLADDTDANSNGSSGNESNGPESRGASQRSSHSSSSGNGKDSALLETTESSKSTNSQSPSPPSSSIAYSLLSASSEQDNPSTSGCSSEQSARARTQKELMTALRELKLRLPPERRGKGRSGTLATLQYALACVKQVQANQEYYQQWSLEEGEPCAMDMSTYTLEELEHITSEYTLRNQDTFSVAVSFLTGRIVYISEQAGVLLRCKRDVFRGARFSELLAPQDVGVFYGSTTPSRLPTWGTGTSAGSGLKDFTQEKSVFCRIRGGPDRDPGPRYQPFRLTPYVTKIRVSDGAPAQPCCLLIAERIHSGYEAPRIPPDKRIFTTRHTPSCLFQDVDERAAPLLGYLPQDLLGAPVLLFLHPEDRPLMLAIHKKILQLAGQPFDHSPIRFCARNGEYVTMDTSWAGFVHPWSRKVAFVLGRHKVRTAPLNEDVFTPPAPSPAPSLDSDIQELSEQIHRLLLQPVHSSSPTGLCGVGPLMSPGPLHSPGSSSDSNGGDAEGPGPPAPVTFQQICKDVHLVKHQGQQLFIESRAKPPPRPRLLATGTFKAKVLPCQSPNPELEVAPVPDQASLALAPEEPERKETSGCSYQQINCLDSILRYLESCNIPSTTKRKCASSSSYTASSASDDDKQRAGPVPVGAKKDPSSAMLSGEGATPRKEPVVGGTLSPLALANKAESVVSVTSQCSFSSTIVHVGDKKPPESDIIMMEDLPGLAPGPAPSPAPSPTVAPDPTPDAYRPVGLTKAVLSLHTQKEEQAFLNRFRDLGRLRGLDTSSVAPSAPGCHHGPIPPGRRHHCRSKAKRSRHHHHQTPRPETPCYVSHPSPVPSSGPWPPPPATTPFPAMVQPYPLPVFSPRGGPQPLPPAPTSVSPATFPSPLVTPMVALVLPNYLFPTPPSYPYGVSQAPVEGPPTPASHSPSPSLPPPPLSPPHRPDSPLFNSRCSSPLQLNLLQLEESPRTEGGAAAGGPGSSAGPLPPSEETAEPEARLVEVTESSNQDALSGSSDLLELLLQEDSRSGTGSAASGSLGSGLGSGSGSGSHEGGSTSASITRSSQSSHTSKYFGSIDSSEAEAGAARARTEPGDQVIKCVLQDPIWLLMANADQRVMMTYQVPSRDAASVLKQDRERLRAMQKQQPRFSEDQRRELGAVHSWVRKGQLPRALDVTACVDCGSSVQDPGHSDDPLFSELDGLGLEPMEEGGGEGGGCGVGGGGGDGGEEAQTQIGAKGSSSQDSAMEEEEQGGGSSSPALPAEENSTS
Protocol: as §1, §2

syrian hamster (sh)BMAL1 = syrian hamster (sh)BMAL1 (syrian hamster, UniProt O88529 1-626); experiment: cell-based or functional assay
Chain of syrian hamster (sh)BMAL1 (O88529 whole entry): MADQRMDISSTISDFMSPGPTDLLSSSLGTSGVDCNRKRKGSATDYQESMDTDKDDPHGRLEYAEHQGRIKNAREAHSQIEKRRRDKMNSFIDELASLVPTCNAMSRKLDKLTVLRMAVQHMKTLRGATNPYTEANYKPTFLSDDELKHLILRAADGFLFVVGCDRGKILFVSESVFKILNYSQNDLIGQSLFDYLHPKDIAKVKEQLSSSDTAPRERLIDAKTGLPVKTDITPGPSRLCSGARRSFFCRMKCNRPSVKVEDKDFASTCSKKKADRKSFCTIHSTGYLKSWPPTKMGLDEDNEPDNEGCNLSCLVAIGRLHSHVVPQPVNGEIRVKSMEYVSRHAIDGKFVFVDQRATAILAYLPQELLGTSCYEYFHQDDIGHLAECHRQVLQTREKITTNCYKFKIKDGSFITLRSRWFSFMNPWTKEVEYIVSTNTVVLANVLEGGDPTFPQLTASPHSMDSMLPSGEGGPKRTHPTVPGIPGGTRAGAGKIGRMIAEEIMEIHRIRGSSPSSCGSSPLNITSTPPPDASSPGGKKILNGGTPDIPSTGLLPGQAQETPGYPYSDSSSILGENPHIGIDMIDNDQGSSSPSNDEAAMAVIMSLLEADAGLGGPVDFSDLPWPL

dCLOCK (from UniProt O61735 1-1027)
transcriptional activity (per E box luciferase reporter, S2 cells) (CYC (Drosophila)): 265 fold

B1: mPER3-HA (other, mouse, UniProt O70361 1-1113, looked up, not shown: small tags and cut ends)
chain: MDPCGDPAVPGGDCPQTRGPGLQGASGQEGPLQGTCVDSSHSEHEDRNRMSEELIMVVQEMKKYFPAERHTKPSTLDALNYALRCVHSVQANSDFFQSLGPRGAHQADVTVYSLEDLTALASEHTSKNTDTFAAVFSFLSGRLVHISEQAALILNSKRGFLKSVHFVDLLAPQDVRAFYAHTAPTQLPFWNNWTQRASQYECAPAKPFFCRICGGGDREKRHYSPFRILPYLVHVHSSAQPEPEPCCLTLVEKIHSGYEAPRIPVDKRIFTTTHTPGCVFLEVDERAVPLLGYLPQDLIGTSILTYLHPEDRPLMVAIHQKVLKYAGHPPFEHSPVRFCTQNGEYVILDSSWSSFVNPWSRKVSFIIGRHKVRTSPLNEDVFATRIKKAASNDKDIAELQEQIHKLLLQPVHASASSGYGSLGSSGSQEQHVSITSSSESSGHCPEEGQHEQMTLQQVYASVNKIKNVGQQLYIESMARSSVKPVAETCVEPQGGDEQKDFSSSQTLKNKSTTDTGSGGNLQQEQPSSSYQQMNCIDSVIRYLTSYSLPALKRKCISCTNTSSSSEEAKPIPEVDSSQRDTEQLLDIRKQETTGPSTDIEGGAARTLSTAALSVASGISQCSCSSTSGHAPPLQSESVAVACKPWALRTKASHLAAGGFKHVGLTAAVLSAHTQKEEQNYVDRFREKILTSPYGCYLQQESRNRAQYSCVQAGSTAKHSRCAGSERQKHKRKKLPAPVDTSSPGAHLCPHVTGLLPDEQHWGPSASPSPLGAGLAFPSALVVPSQTPYLLPSFPLQDMASQGVGVSAAWGAAAGCPPLSAGPQAVAAFPSAYVDTLMTIFLHNAPLFPLWPPSFSPYPSLGAAGSSELAPLVPAMAPNPEPTTSGHSQRRVEENWEAHSEELPFISSRSSSPLQLNLLQEEMPAPSESADAVRRGAGPDAKHHCVTGPSGSRSRHCTSGELATATAQQESAAASGSSASSIYFSSTDYASEVSENRQRPQDRQRDEALPGAAEESIWRMIERTPECVLMTYQVPERGREEVLKQDLEKLQSMEQQQPLFSPAQREELAKVRSWIHSHTAPQEGHLQSCVACEDRGSVGDTAEVLEQHPAEDTS
notes: Expressed in COS7 cells from pcDNA 3.1; immunoprecipitated with anti-HA antibody
binding result (mTIM-V5): no binding

B2
binding result (mPER1-HA): no binding

B3: mCLOCK (other, mouse, UniProt O08785 1-855, looked up)
chain: MVFTVSCSKMSSIVDRDDSSIFDGLVEEDDKDKAKRVSRNKSEKKRRDQFNVLIKELGSMLPGNARKMDKSTVLQKSIDFLRKHKETTAQSDASEIRQDWKPTFLSNEEFTQLMLEALDGFFLAIMTDGSIIYVSESVTSLLEHLPSDLVDQSIFNFIPEGEHSEVYKILSTHLLESDSLTPEYLKSKNQLEFCCHMLRGTIDPKEPSTYEYVRFIGNFKSLTSVSTSTHNGFEGTIQRTHRPSYEDRVCFVATVRLATPQFIKEMCTVEEPNEEFTSRHSLEWKFLFLDHRAPPIIGYLPFEVLGTSGYDYYHVDDLENLAKCHEHLMQYGKGKSCYYRFLTKGQQWIWLQTHYYITYHQWNSRPEFIVCTHTVVSYAEVRAERRRELGIEESLPETAADKSQDSGSDNRINTVSLKEALERFDHSPTPSASSRSSRKSSHTAVSDPSSTPTKIPTDTSTPPRQHLPAHEKMTQRRSSFSSQSINSQSVGPSLTQPAMSQAANLPIPQGMSQFQFSAQLGAMQHLKDQLEQRTRMIEANIHRQQEELRKIQEQLQMVHGQGLQMFLQQSNPGLNFGSVQLSSGNSNIQQLTPVNMQGQVVPANQVQSGHISTGQHMIQQQTLQSTSTQQSQQSVMSGHSQQTSLPSQTPSTLTAPLYNTMVISQPAAGSMVQIPSSMPQNSTQSATVTTFTQDRQIRFSQGQQLVTKLVTAPVACGAVMVPSTMLMGQVVTAYPTFATQQQQAQTLSVTQQQQQQQQQPPQQQQQQQQSSQEQQLPSVQQPAQAQLGQPPQQFLQTSRLLHGNPSTQLILSAAFPLQQSTFPPSHHQQHQPQQQQQLPRHRTDSLTDPSKVQPQ
transcriptional activation (vasopressin promoter luciferase reporter, NIH3T3 cells) (syrian hamster (sh)BMAL1): 10 fold increase | transcriptional activity (per E box luciferase reporter, S2 cells) (syrian hamster (sh)BMAL1): 1740 fold

B4: human (h)MOP4 (other, UniProt Q99743 1-824, looked up)
chain: MDEDEKDRAKRASRNKSEKKRRDQFNVLIKELSSMLPGNTRKMDKTTVLEKVIGFLQKHNEVSAQTEICDIQQDWKPSFLSNEEFTQLMLEALDGFIIAVTTDGSIIYVSDSITPLLGHLPSDVMDQNLLNFLPEQEHSEVYKILSSHMLVTDSPSPEYLKSDSDLEFYCHLLRGSLNPKEFPTYEYIKFVGNFRSYNNVPSPSCNGFDNTLSRPCRVPLGKEVCFIATVRLATPQFLKEMCIVDEPLEEFTSRHSLEWKFLFLDHRAPPIIGYLPFEVLGTSGYDYYHIDDLELLARCHQHLMQFGKGKSCCYRFLTKGQQWIWLQTHYYITYHQWNSKPEFIVCTHSVVSYADVRVERRQELALEDPPSEALHSSALKDKGSSLEPRQHFNTLDVGASGLNTSHSPSASSRSSHKSSHTAMSEPTSTPTKLMAEASTPALPRSATLPQELPVPGLSQAATMPAPLPSPSSCDLTQQLLPQTVLQSTPAPMAQFSAQFSMFQTIKDQLEQRTRILQANIRWQQEELHKIQEQLCLVQDSNVQMFLQQPAVSLSFSSTQRPEAQQQLQQRSAAVTQPQLGAGPQLPGQISSAQVTSQHLLRESSVISTQGPKPMRSSQLMQSSGRSGSSLVSPFSSATAALPPSLNLTTPASTSQDASQCQPSPDFSHDRQLRLLLSQPIQPMMPGSCDARQPSEVSRTGRQVKYAQSQTVFQNPDAHPANSSSAPMPVLLMGQAVLHPSFPASQPSPLQPAQARQQPPQHYLQVQAPTSLHSEQQDSLLLSTYSQQPGTLGYPQPPPAQPQPLRPPRRVSSLSESSGLQQPPR
transcriptional activation (vasopressin promoter luciferase reporter, NIH3T3 cells) (syrian hamster (sh)BMAL1): 37 fold increase | transcriptional activity (per E box luciferase reporter, S2 cells) (syrian hamster (sh)BMAL1): 539 fold
